According to patent US6800467B1, “Polypeptides having aminopeptidase activity and nucleic acids encoding same” (Novozymes Biotech, Inc., priority 1997, dated 2004):

Tests used:
Type in all cases: biochemical
[1] = Kinetic parameters of aminopeptidase II for p-nitroanilides at pH 7.0 and 25° C.; conditions: pH 7.0, 25° C.
Procedure: The purified aminopeptidase II described in Example 11 was used in the following characterization.
Kinetic parameters of the aminopeptidase II were determined for several p-nitroanilides (pNA) including Leu-pNA, Gly-pNA, Ala-pNA, and Pro-pNA (Sigma Chemical Co., St. Louis, Mo., or Bachem, Torrance, Calif.). Stock solutions of 100 mg of each p-nitroanilide per ml of dimethylsulfoxide were diluted with 50 mM potassium phosphate pH 7.0 buffer to concentrations ranging from 0.0064 to 9.56 mM. […] The reaction of the aminopeptidase II with the p-nitroanilide was initiated when a 100 μl aliquot of the enzyme solution in 50 mM potassium phosphate pH 7.0 was added to 100 μl of a substrate solution in a microtiter plate well and monitored at 405 nm and 25° C. using a THERMOmax Microplate Reader (Molecular Devices Corp., Sunnyvale, Calif.).

[2] = Temperature stability of the aminopeptidase II, residual activity on Leu-pNA
Procedure: The temperature stability of the aminopeptidase II was determined using the following protocol: 480 μl of 50 mM sodium phosphate buffer pH 7.5 was preincubated at 37°, 45°, 55°, 60°, 65°, 70°, and 75° C. for 30 minutes in a 1.7 ml Eppendorf tube. Then 20 μl of purified aminopeptidase II was added and the sample was then incubated for an additional 20 minutes. The samples were then placed on ice. Once the incubations were completed for all the temperatures, the samples were then assayed for activity using Leu-pNA as substrate.
The assay was performed by mixing 100 μl of the incubation mixtures for the various temperatures with 100 μl of 2 mg/ml Leu-pNA in 50 mM sodium phosphate pH 7.5 buffer at ambient temperature. The absorbance at 405 nm was monitored for 5 minutes.

[3] = test system: wheat gluten meal tablets; experiment: Degree of hydrolysis (DH) assay, gluten; conditions: 50° C., 18 hours
Procedure: The purified aminopeptidase II described in Example 11 was tested in degree of hydrolysis assays using soy, wheat gluten, and casein as substrates according to the following procedure.
The degree of hydrolysis (DH) assays were performed at 50° C. for 18 hours as a mini-hydrolysis on a 10 ml scale using soy bean meal tablets, wheat gluten meal tablets, and sodium-caseinate at a 2% concentration adjusted to pH 7, if necessary, with no pH adjustment during hydrolysis. The hydrolysates were inactivated at 85° C. for 3 minutes in a waterbath. The enzymes used were FLAVOURZYME™ and aminopeptidase II. The enzymes were dosed as follows. […] Upon hydrolysis, p-nitroanilide is liberated turning the solution yellow which is monitored 405 nm.
The degree of hydrolysis (DH), as defined as described by Adler-Nissen (1986, Enzymic Hydrolysis of Food Proteins, Elsevier Applied Science Publishers), was determined by reaction of the supernatant with OPA (ortho-phtaldialdehyde, Sigma Chemical Co., St. Louis, Mo.) according to the following procedure The hydrolysate was diluted 100-fold into distilled water. […] The solution was then shaken well and after 2 minutes exactly, the absorbance at 340 nm was measured and compared to the absorbance of a 0.95 mM L-serine (distilled water) solution after subtraction of the blank value (water reacted with OPA reagent). […]

gelatin = experiment: Degree of hydrolysis (DH) assay, gelatin
[4] = substrate Ala-pNA, enzyme of Example 11
[5] = substrate Gly-pNA, enzyme of Example 11
[6] = substrate Pro-pNA, enzyme of Example 11

B1: aminopeptidase II: Recombinant Aspergillus oryzae 1568 (ATCC 20386) aminopeptidase II, 496 amino acids (SEQ ID NO:2), produced in Aspergillus oryzae or Fusarium (protein)
chain: MRSLLWASLLSGVLAGRALVSPDEFPEDIQLEDLLEGSQQLEDFAYAYPERNRVFGGKAHDDTVNYLYEELKKTGYYDVYKQPQVHLWSNADQTLKVGDEEIEAKTMTYSPSVEVTADVAVVKNLGCSEADYPSDVEGKVALIKRGECPFGDKSVLAAKAKAAASIVYNNVAGSMAGTLGAAQSDKGPYSAIVGISLEDGQKLIKLAEAGSVSVDLWVDSKQENRTTYNVVAQTKGGDPNNVVALGGHTDSVEAGPGINDDGSGIISNLVIAKALTQYSVKNAVRFLFWTAEEFGLLGSNYYVSHLNATELNKIRLYLNFDMIASPNYALMIYDGDGSAFNQSGPAGSAQIEKLFEDYYDSIDLPHIPTQFDGRSDYEAFILNGIPSGGLFTGAEGIMSEENASRWGGQAGVAYDANYHAAGDNMTNLNHEAFLINSKATAFAVATYANDLSSIPKRNTTSSLHRRARTMRPFGKRAPKTHAHVSGSGCWHSQVEA
[1]; [4]
  Km: 11 mM
  Vmax: 1200 relative units
[1]; [5]
  Km: 0.3 mM
  Vmax: 1670 relative units
[1]; substrate Leu-pNA, enzyme of Example 11
  Vmax: 6400 relative units
[1]; substrate Leu-pNA, enzyme of Example 11 (produced in Aspergillus)
  Km: 7 mM
[1]; [6]
  Km: 2 mM
  Vmax: 120 relative units
[2]; 20 minutes at 37° C., pH 7.5, no substrate (reference)
  Percent activity relative to 37° C.: 100
[2]; 20 minutes at 45° C., pH 7.5, no substrate
  Percent activity relative to 37° C.: 101
[2]; 20 minutes at 55° C., pH 7.5, no substrate
  Percent activity relative to 37° C.: 99
[2]; 20 minutes at 60° C., pH 7.5, no substrate
  Percent activity relative to 37° C.: 90
[2]; 20 minutes at 65° C., pH 7.5, no substrate
  Percent activity relative to 37° C.: 73.7
[2]; 20 minutes at 70° C., pH 7.5, no substrate
  Percent activity relative to 37° C.: 64.6
[2]; 20 minutes at 75° C., pH 7.5, no substrate
  Percent activity relative to 37° C.: 46
[3]; 2 LAPUs aminopeptidase II added to 3 LAPUs FLAVOURZYME
  increase of absolute DH: 6%
[3]; 5 LAPUs aminopeptidase II added to 3 LAPUs FLAVOURZYME
  increase of absolute DH: 9%
gelatin; 2 LAPUs added to 3 LAPUs FLAVOURZYME
  increase of absolute DH: 4.9%
gelatin; 5 LAPUs added to 3 LAPUs FLAVOURZYME
  increase of absolute DH: 5.3%
